The target of the test is GST-AKAP79. As to the kind of experiment: phage display recovery; RII phage recovered by GST-AKAP79 compared with GST alone; pilot study (supplemental Fig. S1B).

These results are taken from publication PMC3682517.

Sequence of RII phage: PKA RIIα (residues 1–45) displayed on the T7 capsid protein (P13861 2-404): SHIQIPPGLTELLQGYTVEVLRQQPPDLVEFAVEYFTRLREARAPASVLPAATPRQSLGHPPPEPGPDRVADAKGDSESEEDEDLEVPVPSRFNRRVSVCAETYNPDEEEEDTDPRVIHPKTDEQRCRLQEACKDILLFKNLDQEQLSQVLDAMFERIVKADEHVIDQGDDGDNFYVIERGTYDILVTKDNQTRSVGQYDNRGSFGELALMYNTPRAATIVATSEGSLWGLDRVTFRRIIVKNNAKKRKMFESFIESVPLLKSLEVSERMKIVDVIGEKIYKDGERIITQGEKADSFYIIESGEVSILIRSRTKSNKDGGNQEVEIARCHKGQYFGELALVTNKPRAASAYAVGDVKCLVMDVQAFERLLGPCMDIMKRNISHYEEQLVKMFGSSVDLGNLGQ
Sequence of GST-AKAP79 (P24588 whole entry): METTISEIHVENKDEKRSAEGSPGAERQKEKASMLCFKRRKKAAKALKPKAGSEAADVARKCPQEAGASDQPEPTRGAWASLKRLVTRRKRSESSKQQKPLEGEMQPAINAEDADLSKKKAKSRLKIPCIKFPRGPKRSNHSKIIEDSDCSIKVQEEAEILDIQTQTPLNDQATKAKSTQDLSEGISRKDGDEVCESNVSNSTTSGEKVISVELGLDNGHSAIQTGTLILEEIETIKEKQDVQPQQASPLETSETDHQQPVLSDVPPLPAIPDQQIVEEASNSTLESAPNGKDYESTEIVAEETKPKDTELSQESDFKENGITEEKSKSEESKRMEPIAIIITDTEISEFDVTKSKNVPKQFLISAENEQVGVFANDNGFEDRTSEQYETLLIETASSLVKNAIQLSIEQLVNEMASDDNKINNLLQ

For the substance “RII phage: PKA RIIα (residues 1–45) displayed on the T7 capsid protein (from UniProt P13861 1-45) (domain or fragment)”, the fold more phage recovered than with GST alone is 300 fold.
